Results published in US20220133794A1 (Stanford University, published 2022).
Residue numbers refer to the chain shown, from its start. Each block holds one binder with its values, some of them ahead of it.

Assays:
human CD93 [1] = biological target: T1, human CD93 (human, UniProt Q9NPY3 22-652); test: hybridoma supernatant screen by ELISA and flow cytometry
T1 construct: whole, on cells; Endogenous CD93 on AML cell lines
T1 sequence (looked up): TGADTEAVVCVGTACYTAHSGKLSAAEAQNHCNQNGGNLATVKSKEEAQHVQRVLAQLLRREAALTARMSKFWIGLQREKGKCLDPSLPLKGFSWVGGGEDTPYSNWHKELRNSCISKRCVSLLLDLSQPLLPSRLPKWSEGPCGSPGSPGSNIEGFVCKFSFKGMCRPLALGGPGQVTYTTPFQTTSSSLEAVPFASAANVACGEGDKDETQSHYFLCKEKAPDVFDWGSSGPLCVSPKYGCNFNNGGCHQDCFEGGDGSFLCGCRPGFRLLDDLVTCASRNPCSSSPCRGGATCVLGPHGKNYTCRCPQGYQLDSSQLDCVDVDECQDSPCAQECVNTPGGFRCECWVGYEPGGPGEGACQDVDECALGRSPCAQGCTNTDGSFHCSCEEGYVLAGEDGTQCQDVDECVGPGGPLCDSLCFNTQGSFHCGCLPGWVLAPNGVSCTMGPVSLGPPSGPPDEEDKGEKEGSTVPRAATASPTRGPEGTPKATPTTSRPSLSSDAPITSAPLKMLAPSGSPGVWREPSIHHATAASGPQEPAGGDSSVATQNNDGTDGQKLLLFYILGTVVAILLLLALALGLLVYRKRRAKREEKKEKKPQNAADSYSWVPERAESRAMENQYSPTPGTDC

human CD93 [2] = biological target: T1, human CD93; test: flow cytometry on AML cell lines, biotinylated antibody and streptavidin APC
Protocol: FIG. 8. CD93-specific CAR T cells produce cytokines when incubated with CD93 positive AML cell lines. A. AML cell lines were first treated with Fc block, then were stained with biotinylated HuF11 antibody followed by streptavidin APC, or with streptavidin APC only as a control. CD93 was highly expressed on many AML cell lines including THP-1, Kasumi, MOLM-13, NOMO-1, and OCI-AML3, and was not expressed on HEL-2. B. 1×10⁵ AML cells were incubated with 1×10⁵ mock, F11 28ζ LH, F11 28ζ H-L, F11 BBζ L-H, or F11 BBζ H-L CAR T cells for 24 h. At 24 h, supernatant was harvested and ELISA was performed for IFNγ and IL-2. Results are representative of at least three independent experiments.

binding result (human CD93 [1]): binds
B1: mouse monoclonal anti-human CD93 antibody F11 (hybridoma clone F11) (antibody, V domains shown)
VH: EVQLQQSGPELVKPGASVKIPCKASGYTFTDYHMDWVKQSHGKSLEWIGDIDPYNGDTVFNQKFKGKATLTVDKSSSTAYMELRSLTSEDTAVYYCTRGGDYWGQGTTLTVSS
VL: DVVMTQTPLSLPVSLGDQASISCRSSQTLVHSNGNTYLHWYLQKPGQSPKLLIYKVSNRFSGVPDRFSGSGSGTDFTLKISRVEAEDLGVYFCSQSTHVPFTFGSGTKLEIK
notes: Mouse hybridoma antibody tested as supernatant; also called mouse F11; parental antibody

binding result (human CD93 [2]): binds
B2: humanized F11-G1 (Hu F11-G1) (antibody, V domains shown)
VH: QVQLVQSGAEVKKPGASVKVSCKASGYTFTDYHMDWVKQAPGQGLEWIGDIDPYNGDTVFNQKFKGKATMTRDTSISTAYMELSRLRSDDTAVYYCTRGGDYWGQGTLVTVSS
VL: B1 VL with V2I, P12S, S14T, L15P, D17Q, Q18P, S48P, K50Q, L88V, S105Q
notes: The light chain was detected with anti-human kappa; also called humanized mCD93 antibody (F11); humanized anti-CD93 antibody
